Data on six molecules can be found in paper PMC10689493 (Nature Communications, 2023).

Some results are limits rather than exact numbers.

Assay [1] has as its target biotinylated SARS-CoV-2 Spike protein (WA-2, 2 P) (SARS-CoV-2 WA-2 (entry: reference …, UniProt P0DTC2, stabilised, biotinylated)).
A further assay addresses OC43 Spike protein, 2 P (human coronavirus OC43, isolate not …, UniProt P36334, stabilised). Put plainly: ELISA. The note with it: both partners purified.
In assay [2] the target is T1, synthesized SARS-CoV-2 stem helix peptide (residues 1147-1161) (SARS-CoV-2, UniProt P0DTC2).
T1 construct: source: synthetic peptide
Put plainly: ELISA. The conditions noted are these: both partners purified. (In general: An ELISA detects its analyte on a solid surface through an enzyme-linked reagent.)

The target of assay [3] is T2, S2hlx-Ex19 epitope scaffold (synthetic design (Mus musculus VPS54 …)).
T2 construct: source: E. coli BL-21 (DE3), purified (Ni-NTA, SEC)
T2 chain: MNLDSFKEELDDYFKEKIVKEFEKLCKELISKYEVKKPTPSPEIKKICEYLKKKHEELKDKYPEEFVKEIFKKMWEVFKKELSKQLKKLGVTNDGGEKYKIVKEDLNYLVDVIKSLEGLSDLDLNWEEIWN
Put plainly: SPR. The conditions noted are these: both partners purified.

Assay [4] has as its target T3, synthesized stem helix peptide (1140-1164) (SARS-CoV-2, UniProt P0DTC2).
T3 chain: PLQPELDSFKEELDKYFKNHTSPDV
Put plainly: ELISA. The conditions noted are these: both partners purified.

Another assay has as its target T4, S2hlx-7 epitope scaffold (synthetic design (Rhodopseudomonas …)).
T4 construct: source: E. coli BL-21 (DE3), purified (Ni-NTA, SEC)
T4 chain: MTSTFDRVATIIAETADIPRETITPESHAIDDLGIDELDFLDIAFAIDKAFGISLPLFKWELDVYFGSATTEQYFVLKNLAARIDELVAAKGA
Put plainly: SPR. The conditions noted are these: both partners purified.

B1: DH1501.3 (antibody, V domains shown)
VH: QVQLVQSGAEVKKPGASVRLSCKASGDTFTNEYVQWVRQAPGQGLEWMGLINPSGSGTAFARNFQGRVSMTRDTSTRTVYMDLTSLRYEDTAVYYCARMSRAGTFDLWGQGTMVTVSS
VL: EIVLTQSPDTLSLSLGERATLFCRASETIDSRYLAWYQQKPGRAPRLLMSGTSVRATGIPDRFSGSGSGTDFTLTITRLEPEDFAVYYCQQYGSSPPRYTFGQGTKLAMK
B1: the binding result in assay [1] was “binds”.

B2: DH1501.1 (antibody, V domains shown)
VH: EVQLVESGAEVKKPGASVRVSCKASGFTFTDHYMHWVRQAPGQGLEWMGLINPTGVNTFYAQNFRGRVTMTRDTSTKTDYLEVRSLTSQDTAMYYCARMSRYGAFDIWGQGTMVTVSL
VL: EIVLTQSPGTLSLSPGERATLSCRASQSVGSGYLAWYQQKPGQAPRLLIYGASVRATGIPDRFSGSGSGTDFSLTINRVEPEDFAMYYCQNYGSSPPRYTFGQGTKLEIK
For B2, the binding result in assay [1] is “binds”.

B3: S2P6 mAb (antibody, V domains shown)
VH: EVQLVQSGAEVKKPGASVKVSCKASGYTFTSQYMHWVRQAPGQGLEWIGIINPSGVHTSYAQKFQGRVTLTRDTSTSTLYMELSSLRSEDTAVYYCARGSPKGAFDYWGQGTLVTVSS
VL: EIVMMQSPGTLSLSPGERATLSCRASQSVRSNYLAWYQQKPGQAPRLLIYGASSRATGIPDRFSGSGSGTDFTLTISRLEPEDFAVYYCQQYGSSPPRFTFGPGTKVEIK
notes: IgG; IGHV1-46/IGKV3-20; source: Expi293F, transfected, purified (Protein A)
On to B3, for which the binding result with OC43 Spike protein, 2 P is listed as “binds”.

B4: CC40.8 mAb (antibody, V domains shown)
VH: EVQLLESGGGLVQPGGSLRLSCAASGFTFSSYVMTWARQAPGKGLEWVSAISGTGYTYYADSVKGRFTVSRDNSKNTLFLQMSSLRAEDTAVYYCAITMAPVVWGQGTTVTVSS
VL: SYELTQPPSVSVSPGQTARITCSGDALPKRYAYWYQQKSGQAPILVIYEDKKRPSGIPERLSGSKSGTVATLTISGAQVEDEADYYCYSTDSSGNHAVFGGGTQLTVL
notes: IgG; source: Expi293F, transfected, purified (Protein A)
Take B4: the binding result is listed as “no binding” in assay [2] and “binds” with OC43 Spike protein, 2 P. In addition, the Kd (commonly the free concentration of one partner at which half of the binding sites on the other are occupied at equilibrium, for simple one-to-one binding) in assay [3] was determined as 6.7 nM.

B5: DH1501.2 (antibody, V domains shown)
VH: EVQLVESGAEVKKPGASVRLSCKASGDTFNNKYVHWVRQAPGQGLEWMGLINPSGSGTAFAQKFQGRVSMTRDTSTRTVYLGLTSLTYEDTAVYYCARMSRAGTFDIWDQGTMVTVSS
VL: EIVLTQSPGTLSLSPGDRATLSCRASENVGTSYLAWYQQKPGQAPRLLISGTSSRATGVPDRFSGSGSGRDFTLTISRLEPEDFAVYYCQQYGSSPPRYTFGQGTKLDMK
B5: the binding result in assay [1] is on record as “binds”.

B6: DH1057.1 mAb (antibody, V domains shown)
VH: EVQLVESGTEVKKPGASVKVSCKTSGYIFTNYYIHWVRQAPGQGLEWMGIFNPNGGGTSYAQKFQGRITLTGNTSANTGYMVLRSLTSEDTAVYYCARDPRTSGDNDGFDMWGQGTKVTVSS
VL: VLTQSPATLSLSPGERATLSCRASQSLSSYNYLAWYQQKPGQAPRLLIYAASKRATGIPARFSGSGSGTDFTLTISSLEPEDFAVYFCQQRSNRPPAWTFGQGTKVEIK
notes: source: Expi293F, transfected, purified (Protein A)
On to B6, for which the binding result in assay [4] and in assay [2] was “binds” in each case. Besides, the “fold better binding than spike” value with S2hlx-7 epitope scaffold is over 10 fold.
